Data published in PMC11723922, “The TGF-β mimic TGM4 achieves cell specificity through combinatorial surface co-receptor binding” (EMBO Reports, 2024).

T1: Mouse CD44 extracellular domain, recombinant (mouse, UniProt P15379 23-685)
T1 construct: CD44, mouse, extracellular domain; also called mCD44; murine CD44; source: expi293 cells, purified from the conditioned medium
T1 sequence (looked up): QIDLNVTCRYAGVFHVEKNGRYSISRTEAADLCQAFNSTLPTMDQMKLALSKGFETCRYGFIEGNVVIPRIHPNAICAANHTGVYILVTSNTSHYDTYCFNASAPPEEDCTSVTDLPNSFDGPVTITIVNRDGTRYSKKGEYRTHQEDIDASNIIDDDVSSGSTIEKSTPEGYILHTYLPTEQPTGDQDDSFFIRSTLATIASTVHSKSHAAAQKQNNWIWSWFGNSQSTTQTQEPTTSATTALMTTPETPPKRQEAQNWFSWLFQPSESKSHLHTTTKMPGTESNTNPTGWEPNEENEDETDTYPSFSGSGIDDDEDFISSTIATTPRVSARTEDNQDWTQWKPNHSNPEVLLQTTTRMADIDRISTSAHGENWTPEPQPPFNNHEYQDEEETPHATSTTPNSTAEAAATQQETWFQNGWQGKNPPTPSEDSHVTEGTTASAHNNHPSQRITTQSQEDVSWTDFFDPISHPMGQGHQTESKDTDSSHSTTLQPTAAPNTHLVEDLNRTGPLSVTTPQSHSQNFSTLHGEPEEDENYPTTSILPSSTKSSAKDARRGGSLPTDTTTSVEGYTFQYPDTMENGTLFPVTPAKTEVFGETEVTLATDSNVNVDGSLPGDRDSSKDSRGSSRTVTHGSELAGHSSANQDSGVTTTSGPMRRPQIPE

B1: TGM4 D4-5, recombinant (domain or fragment)
chain: RCKPLETNVSVHYEYFTMTNETGRKEGTPAEVDKGGKYPQHTCVRKFCDKSPYTCSVKGPIFGECLDGQWNFTALDECLNARGCNSDDLFDKLGFEGVMVREEEGSDSYKDDFVRFYATGSKVNAECKGKTVQLECSDGEWHDPGTKTVHRCTKEGIRAL
modifications: biotinylated in the streptavidin pull-downs; Alexa Fluor 488 label in flow cytometry; unlabelled in ITC and as competitor
B2: TGM1 D4-5, recombinant (domain or fragment)
chain: RCKPLEANESVHYEYFTMTNETDKKKGPPAKVGKSGKYPEHTCVKKVCSKWPYTCSTGGPIFGECIGATWNFTALMECINARGCSSDDLFDKLGFEKVIVRKGEGSDSYKDDFARFYATGSKVIAECGGKTVRLECSNGEWHEPGTKTVHRCTKDGIRTL

Legend:
[1] = target: T2, Human CD44 extracellular domain, recombinant (human, UniProt P16070 21-649); experiment: ITC; TGM D4-5 fragments with mouse or human CD44 extracellular domain; 25 mM Na2HPO4, 50 mM NaCl, pH 6.0, 35 °C; two datasets globally fit (NITPIC, SEDPHAT); conditions: both partners purified
T2 construct: CD44, human, extracellular domain; also called hCD44; source: expi293 cells, purified from the conditioned medium

[2] = target: T1, Mouse CD44 extracellular domain, …; experiment: as above; conditions: both partners purified

T2 sequence (P16070 21-649): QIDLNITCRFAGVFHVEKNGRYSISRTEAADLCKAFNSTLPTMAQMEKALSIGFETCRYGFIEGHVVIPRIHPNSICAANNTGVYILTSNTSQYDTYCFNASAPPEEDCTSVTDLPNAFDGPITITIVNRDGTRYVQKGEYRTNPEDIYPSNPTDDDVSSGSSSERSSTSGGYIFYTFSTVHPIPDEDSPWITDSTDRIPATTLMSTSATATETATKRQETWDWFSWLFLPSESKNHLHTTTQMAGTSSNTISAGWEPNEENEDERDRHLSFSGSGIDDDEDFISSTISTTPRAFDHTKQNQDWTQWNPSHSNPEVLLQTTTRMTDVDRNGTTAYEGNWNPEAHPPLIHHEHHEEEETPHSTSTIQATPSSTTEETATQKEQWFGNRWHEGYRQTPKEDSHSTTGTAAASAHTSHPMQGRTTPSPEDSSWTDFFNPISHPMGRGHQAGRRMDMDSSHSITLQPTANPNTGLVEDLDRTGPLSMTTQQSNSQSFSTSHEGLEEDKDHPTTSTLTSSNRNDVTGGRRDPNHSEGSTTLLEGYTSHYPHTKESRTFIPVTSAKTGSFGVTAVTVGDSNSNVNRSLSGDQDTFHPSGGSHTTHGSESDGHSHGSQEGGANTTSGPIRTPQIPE

Row | Binder | Kd [1] | Kd [2]
1 | B1 | 78 nM | 20 nM
2 | B2 | 122 nM | 30 nM
